{"source": "paper PMC6449974", "about": "(2019)", "binders": {"B1": {"name": "HIV-1 capsid protein CA (unassembled) (protein)", "chain": "not shown"}}, "biological_target": "Cyclophilin A (Homo sapiens, UniProt P62937)", "experiment": "SPR"}
{"binder": "B1", "values": [{"measurement": "Kd", "result": "~27", "unit": "µM"}]}
